Entries after “also recorded” stand apart in the source; their conditions may differ.
Key:
[1] = tested on: chemically synthesized peptide A-1 (A-1-1, A-1 parent)
[2] = tested on: mercaptoethanol-reduced C4
[3] = tested on: GST-A-1 (peptide A-1 expressed as glutathione S-transferase fusion protein)
[4] = tested on: chemically synthesized peptide C-4 without GA flanks (C-4-1, C4 parent)
[5] = tested on: GST-C-4 (peptide C-4 expressed as glutathione S-transferase fusion protein)
[6] = tested on: Tc99m-labeled C4
[7] = target: insulin like growth factor-binding protein 3 (IGF-BP-3) (UniProt P17936)
[8] = tested on: GST-B-2 (peptide B-2 expressed as glutathione S-transferase fusion protein)
[9] = tested on: Eu-labelled C4-peptide
[10] = tested on: 125I-labeled C4
[11] = tested on: SKSKSKS-aca-CVAYCIEHHCWTC (SKSKSKS-tailed peptide C4)
Target sequence (chain, as listed by the source): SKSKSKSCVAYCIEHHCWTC

Sequence of insulin like growth factor-binding protein 3 (IGF-BP-3) (P17936 28-291): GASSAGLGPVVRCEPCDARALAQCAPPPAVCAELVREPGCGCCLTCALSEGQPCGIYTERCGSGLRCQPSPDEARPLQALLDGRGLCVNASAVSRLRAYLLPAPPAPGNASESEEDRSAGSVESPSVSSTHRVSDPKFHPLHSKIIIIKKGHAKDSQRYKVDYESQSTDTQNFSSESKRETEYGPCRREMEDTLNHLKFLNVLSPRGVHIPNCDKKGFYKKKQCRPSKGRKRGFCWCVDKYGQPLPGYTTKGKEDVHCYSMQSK

Substance: Prostate specific antigen (PSA), purified from human seminal fluid
- cleavage of IGF-BP-3 by PSA (IGF-BP-3 IFMA), 100-fold molar excess of peptide [1]: about 70% cleavage of IGF-BP-3
- PSA enzyme activity (A405) on substrate S-2586; PSA 0.33 µM [2]: mercaptoethanol-reduced C4: curve lies on that of the PSA control over the whole time, about 0.095 at 95 min: no enhancement
- PSA activity against the chromogenic substrate S-2586 (A405) [3]: The enzyme activity of PSA was significantly enhanced by the GST-peptides
- PSA enzyme activity (A405) on substrate S-2586; PSA 0.33 µM [4]: Unlabelled C4: rises to about 0.16 at 95 min; PSA control about 0.095; also recorded: C4: rises to about 0.070 at 58 min; PSA alone about 0.040
- PSA enzyme activity (A405 nm) on substrate S-2586; PSA 0.33 µM, peptide in 30-fold molar excess [4]: non-tailed C4: rises linearly to about 0.063 at 65 min; PSA control about 0.021
- cleavage of IGF-BP-3 by PSA (IGF-BP-3 IFMA), 100-fold molar excess of peptide [4]: about 70% cleavage of IGF-BP-3
- PSA activity against the chromogenic substrate S-2586 (A405) [5]: stimulating PSA activity against the chromogenic substrate about 5-fold
- PSA enzyme activity (A405) on substrate S-2586; PSA 0.33 µM, peptide in 30-fold molar excess [6]: C4-technetium-conjugate: rises to about 0.12 at 95 min, between unlabelled C4 (about 0.16) and the PSA control (about 0.095); wide error bars
- decrease in IGF-BP-3 immunoreactivity (IFMA) after 16 h at 37 °C [7]: PSA alone slowly cleaved IGF-BP-3 as revealed by an 30% decrease in immunoreactivity
- PSA activity against the chromogenic substrate S-2586 (A405) [8]: The enzyme activity of PSA was significantly enhanced by the GST-peptides
- PSA enzyme activity (A405) on substrate S-2586; PSA 0.33 µM with 100 µL of C18 fractions of the Eu-labelling mixture of C4 [9]: at 60 min fraction 27 reaches about 0.043, fraction 26 about 0.037, fraction 28 about 0.024; all other fractions and the PSA control lie together at about 0.006-0.011
- PSA enzyme activity (A405) on substrate S-2586; PSA 0.33 µM, peptide in 30-fold molar excess [10]: 125-iodinated C4: rises to about 0.048 at 58 min, little above PSA alone (about 0.040) and far under C4 (about 0.070)
- PSA enzyme activity (A405 nm) on substrate S-2586; PSA 0.33 µM, peptide in 30-fold molar excess [11]: SKSKSKS-tailed C4: rises linearly to about 0.060 at 65 min, just under non-tailed C4; PSA control about 0.021

Source: patent US20040106557
